# Target: CD70 (human) (UniProt P32970)
# Assay: cell-based or functional assay
# CD70 (human), sequence (P32970 whole entry): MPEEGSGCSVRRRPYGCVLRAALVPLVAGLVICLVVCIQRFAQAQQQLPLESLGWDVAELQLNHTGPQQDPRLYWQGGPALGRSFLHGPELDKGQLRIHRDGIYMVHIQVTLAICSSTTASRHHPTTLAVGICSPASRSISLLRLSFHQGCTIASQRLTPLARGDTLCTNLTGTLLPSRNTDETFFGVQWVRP
substance,measurement,value
anti-CD70 monoclonal antibody (HNE51) (Dako),IgG synthesis by purified B cells stimulated with LPS (control),125 µg/mL

# Reference: US20070031863A1
